# Experiments:
# [1] = molecular target: MsSepF_(core) (Methanobrevibacter smithii SepF, C-terminal FtsZ-binding core, amino acids 54 to 149) (Methanobrevibacter smithii)
# [2] = molecular target: MsSepF_(core) (Methanobrevibacter smithii SepF, C-terminal FtsZ-binding core, amino acids 54 to 149) (Methanobrevibacter smithii); experiment: thermal shift assay
stoichiometry N [1],melting temperature of MsSepFcore upon addition of MsFtsZCTD (70.6 °C without) [2] [°C],Molecule
2,,"MsSepF_(core) (Methanobrevibacter smithii SepF, C-terminal FtsZ-binding core, amino acids 54 to 149) (domain or fragment)"
,82.3,NEDQLDDFIDGIF [FtsZCTD peptide (C-terminal domain of M. smithii FtsZ)]
